Assay results from US20170204445A1, “IN VIVO SITE-SPECIFIC PROTEIN TAGGING USING ENGINEERED SORTASE VARIANTS” (priority 2016, published 2017).

How the values were obtained:
SrtA7M = target: T1, SrtA7M (Staphylococcus aureus, UniProt Q2FV99, D160N/D165A/E105K/E108Q/G167E/K190E/K196T/P94R); test: In vitro conjugation of purified LPETGG-tagged proteins by SrtA7M (ESI-TOF LC-MS); assay type: biochemical; conditions: 10 μM SrtA7M, 100 mM Azp or propargylamine, 8 hours, 37° C.
T1 construct: […]; made in house; host or cells: E. coli
Description: FIG. 3. Transpeptidation of purified proteins. Purified proteins expressed with a C-terminal LPETGG sequence were incubated with 10 μM SrtA7M for 8 hours at 37° C. along with the desired amine. Proteins were then diluted 10-fold with 0.2% formic acid and analyzed by ESI-TOF LC-MS. (A) Maltose binding protein. (B) Sf9 nanobody, and (C) Fibronectin Fn10, all show 80-100% conversion to the desired conjugate.
FIG. 9. Sortase conjugation time course.
FIG. 10. In vitro conjugation of sfGFP derivatives. (A) His-sfGFP-srt and (B) sfGFPHis-srt were incubated with 10 μM SrtA7M and 100 mM Azp or propargylamine for 8 hours at 37° C.
We next determined the ability of SrtA7M to modify purified proteins. We incubated several proteins containing a C terminal LPETGG sequence (srt) with 10 μM enzyme and either 100 mM Azp or propargylamine, followed by quenching with formic acid. […] To define the effective range of reaction conditions, we tested the conjugation of MBP-srt with Azp at different time points and substrate concentrations.
In vitro conjugation of proteins. Purified MBP-srt, His-sfGFP-srt, Nanobody-His-srt, Glutathione-S-transferase-His-srt, Fibronectin-His-srt, and sfGFP-His-srt were labeled after purification in 100 mM ammonium bicarbonate buffer pH 7.8. […]

LPETGSW peptide = LPETGSW peptide (Staphylococcus aureus, UniProt Q2FV99, G167E); test: Transpeptidation of LPETGSW peptide with wild-type SrtA; conditions: 15-fold more enzyme (150 μM), 20 hours, 37° C., 25 mM Tris.HCl pH 7.5, 10 mM CaCl2

Molecule | conversion / modification of the protein with the amine (SrtA7M) | conversion of LPETGSW peptide (LPETGSW peptide)
Fn10-His-srt: engineered fibronectin domain Fn10 with His tag and C terminal LPETGG, SEQ ID NO: 29 (protein, listed as Homo sapiens, His tag, LPETGG) MLVPRGSSDVPRDLEVVAATPTSLLISWDAPAVTVRYYRITYGETGGNSPVQEFTVPGSKSTATISGLKPGVDYTITVYAVTPRGDWNEGSKPISINYRTGKKGKGGHHHHHHLPETGG | complete conversion | 
Wild-type SrtA: wild-type Staphylococcus aureus sortase A Δ59, SEQ ID NO: 26 (protein, listed as Homo sapiens) MQAKPQIPKDKSKVAGYIEIPDADIKEPVYPGPATPEQLNRGVSFAEENESLDDQNISIAGHTFIDRPNYQFTNLKAAKKGSMVYFKVGNETRKYKMTSIRDVKPTDVEVLDEQKGKDKQLTLITCDDYNEKTGVWEKRKIFVATEVKLEHHHHHH |  | modest conversion
